The record followed here is article doi:10.1101/2020.05.12.090381 (bioRxiv, 2020).

What all share (test): negative stain EM
For data set [1], the target named is LdcI R97E/R468E (E. coli) (UniProt P0A9H3).
The next data set has as its target LdcI R468E (E. coli) (UniProt P0A9H3).
Data set [2] deals with Dendra2_(T69A)-LdcI (N-terminal fluorescent protein fusion of LdcI) (not stated | E. coli).
Data set [3] concerns the target LdcI E445A/D447A/R468E (E. coli) (UniProt P0A9H3).
The target of data set [4] is LdcI-Dendra2_(T69A) (C-terminal fluorescent protein fusion of LdcI) (E. coli | not stated).
Data set [5] concerns the molecule itself.
Data set [6] deals with the molecule itself. This is another data set of the same source.

By stoichiometry N is commonly meant a count of units in the complex or per binding partner. In data set [1], “LdcI R97E/R468E (from UniProt P0A9H3 1-715) (enzyme)” registered a stoichiometry N of 10.

Turning to “LdcI R468E (from UniProt P0A9H3 1-715) (enzyme)”, in the data set with LdcI R468E (E. coli), the stoichiometry N came out at 10.

In data set [2], “Dendra2_(T69A)-LdcI (N-terminal fluorescent protein fusion of LdcI)” had a stoichiometry N of 2.

The molecule “LdcI E445A/D447A/R468E (from UniProt P0A9H3 1-715) (enzyme)” showed a stoichiometry N in data set [3] of 10.

In the case of “LdcI-Dendra2_(T69A) (C-terminal fluorescent protein fusion of LdcI)”, the stoichiometry N in data set [4] came to 10.

B1: LdcI H694A (enzyme, E. coli, UniProt P0A9H3 1-715, looked up)
chain: MNVIAILNHMGVYFKEEPIRELHRALERLNFQIVYPNDRDDLLKLIENNARLCGVIFDWDKYNLELCEEISKMNENLPLYAFANTYSTLDVSLNDLRLQISFFEYALGAAEDIANKIKQTTDEYINTILPPLTKALFKYVREGKYTFCTPGHMGGTAFQKSPVGSLFYDFFGPNTMKSDISISVSELGSLLDHSGPHKEAEQYIARVFNADRSYMVTNGTSTANKIVGMYSAPAGSTILIDRNCHKSLTHLMMMSDVTPIYFRPTRNAYGILGGIPQSEFQHATIAKRVKETPNATWPVHAVITNSTYDGLLYNTDFIKKTLDVKSIHFDSAWVPYTNFSPIYEGKCGMSGGRVEGKVIYETQSTHKLLAAFSQASMIHVKGDVNEETFNEAYMMHTTTSPHYGIVASTETAAAMMKGNAGKRLINGSIERAIKFRKEIKRLRTESDGWFFDVWQPDHIDTTECWPLRSDSTWHGFKNIDNEHMYLDPIKVTLLTPGMEKDGTMSDFGIPASIVAKYLDEHGIVVEKTGPYNLLFLFSIGIDKTKALSLLRALTDFKRAFDLNLRVKNMLPSLYREDPEFYENMRIQELAQNIHKLIVHHNLPDLMYRAFEVLPTMVMTPYAAFQKELHGMTEEVYLDEMVGRINANMILPYPPGVPLVMPGEMITEESRPVLEFLQMLCEIGAHYPGFETDIAGAYRQADGRYTVKVLKEESKK
B1: in “negative stain EM [5]”, the binding result is listed as “binds”.

B2: LdcI H694N (enzyme, E. coli, UniProt P0A9H3 1-715, looked up)
chain: MNVIAILNHMGVYFKEEPIRELHRALERLNFQIVYPNDRDDLLKLIENNARLCGVIFDWDKYNLELCEEISKMNENLPLYAFANTYSTLDVSLNDLRLQISFFEYALGAAEDIANKIKQTTDEYINTILPPLTKALFKYVREGKYTFCTPGHMGGTAFQKSPVGSLFYDFFGPNTMKSDISISVSELGSLLDHSGPHKEAEQYIARVFNADRSYMVTNGTSTANKIVGMYSAPAGSTILIDRNCHKSLTHLMMMSDVTPIYFRPTRNAYGILGGIPQSEFQHATIAKRVKETPNATWPVHAVITNSTYDGLLYNTDFIKKTLDVKSIHFDSAWVPYTNFSPIYEGKCGMSGGRVEGKVIYETQSTHKLLAAFSQASMIHVKGDVNEETFNEAYMMHTTTSPHYGIVASTETAAAMMKGNAGKRLINGSIERAIKFRKEIKRLRTESDGWFFDVWQPDHIDTTECWPLRSDSTWHGFKNIDNEHMYLDPIKVTLLTPGMEKDGTMSDFGIPASIVAKYLDEHGIVVEKTGPYNLLFLFSIGIDKTKALSLLRALTDFKRAFDLNLRVKNMLPSLYREDPEFYENMRIQELAQNIHKLIVHHNLPDLMYRAFEVLPTMVMTPYAAFQKELHGMTEEVYLDEMVGRINANMILPYPPGVPLVMPGEMITEESRPVLEFLQMLCEIGAHYPGFETDINGAYRQADGRYTVKVLKEESKK
For B2, in “negative stain EM [5]”, the binding result is recorded as “binds”.

B3: LdcI-mGeosM (C-terminal fluorescent protein fusion of LdcI) (other)
chain: MNVIAILNHMGVYFKEEPIRELHRALERLNFQIVYPNDRDDLLKLIENNARLCGVIFDWDKYNLELCEEISKMNENLPLYAFANTYSTLDVSLNDLRLQISFFEYALGAAEDIANKIKQTTDEYINTILPPLTKALFKYVREGKYTFCTPGHMGGTAFQKSPVGSLFYDFFGPNTMKSDISISVSELGSLLDHSGPHKEAEQYIARVFNADRSYMVTNGTSTANKIVGMYSAPAGSTILIDRNCHKSLTHLMMMSDVTPIYFRPTRNAYGILGGIPQSEFQHATIAKRVKETPNATWPVHAVITNSTYDGLLYNTDFIKKTLDVKSIHFDSAWVPYTNFSPIYEGKCGMSGGRVEGKVIYETQSTHKLLAAFSQASMIHVKGDVNEETFNEAYMMHTTTSPHYGIVASTETAAAMMKGNAGKRLINGSIERAIKFRKEIKRLRTESDGWFFDVWQPDHIDTTECWPLRSDSTWHGFKNIDNEHMYLDPIKVTLLTPGMEKDGTMSDFGIPASIVAKYLDEHGIVVEKTGPYNLLFLFSIGIDKTKALSLLRALTDFKRAFDLNLRVKNMLPSLYREDPEFYENMRIQELAQNIHKLIVHHNLPDLMYRAFEVLPTMVMTPYAAFQKELHGMTEEVYLDEMVGRINANMILPYPPGVPLVMPGEMITEESRPVLEFLQMLCEIGAHYPGFETDIHGAYRQADGRYTVKVLKEESKK
As to B3, the “stoichiometry N” value in the data set “negative stain EM [6]” is 10.

B4: LdcI E445A/D447A (enzyme, E. coli, UniProt P0A9H3 1-715, looked up)
chain: MNVIAILNHMGVYFKEEPIRELHRALERLNFQIVYPNDRDDLLKLIENNARLCGVIFDWDKYNLELCEEISKMNENLPLYAFANTYSTLDVSLNDLRLQISFFEYALGAAEDIANKIKQTTDEYINTILPPLTKALFKYVREGKYTFCTPGHMGGTAFQKSPVGSLFYDFFGPNTMKSDISISVSELGSLLDHSGPHKEAEQYIARVFNADRSYMVTNGTSTANKIVGMYSAPAGSTILIDRNCHKSLTHLMMMSDVTPIYFRPTRNAYGILGGIPQSEFQHATIAKRVKETPNATWPVHAVITNSTYDGLLYNTDFIKKTLDVKSIHFDSAWVPYTNFSPIYEGKCGMSGGRVEGKVIYETQSTHKLLAAFSQASMIHVKGDVNEETFNEAYMMHTTTSPHYGIVASTETAAAMMKGNAGKRLINGSIERAIKFRKEIKRLRTASAGWFFDVWQPDHIDTTECWPLRSDSTWHGFKNIDNEHMYLDPIKVTLLTPGMEKDGTMSDFGIPASIVAKYLDEHGIVVEKTGPYNLLFLFSIGIDKTKALSLLRALTDFKRAFDLNLRVKNMLPSLYREDPEFYENMRIQELAQNIHKLIVHHNLPDLMYRAFEVLPTMVMTPYAAFQKELHGMTEEVYLDEMVGRINANMILPYPPGVPLVMPGEMITEESRPVLEFLQMLCEIGAHYPGFETDIHGAYRQADGRYTVKVLKEESKK
With B4, the binding result in the data set “negative stain EM [5]” was “binds”.

B5: LdcI R97E (enzyme, E. coli, UniProt P0A9H3 1-715, looked up)
chain: MNVIAILNHMGVYFKEEPIRELHRALERLNFQIVYPNDRDDLLKLIENNARLCGVIFDWDKYNLELCEEISKMNENLPLYAFANTYSTLDVSLNDLELQISFFEYALGAAEDIANKIKQTTDEYINTILPPLTKALFKYVREGKYTFCTPGHMGGTAFQKSPVGSLFYDFFGPNTMKSDISISVSELGSLLDHSGPHKEAEQYIARVFNADRSYMVTNGTSTANKIVGMYSAPAGSTILIDRNCHKSLTHLMMMSDVTPIYFRPTRNAYGILGGIPQSEFQHATIAKRVKETPNATWPVHAVITNSTYDGLLYNTDFIKKTLDVKSIHFDSAWVPYTNFSPIYEGKCGMSGGRVEGKVIYETQSTHKLLAAFSQASMIHVKGDVNEETFNEAYMMHTTTSPHYGIVASTETAAAMMKGNAGKRLINGSIERAIKFRKEIKRLRTESDGWFFDVWQPDHIDTTECWPLRSDSTWHGFKNIDNEHMYLDPIKVTLLTPGMEKDGTMSDFGIPASIVAKYLDEHGIVVEKTGPYNLLFLFSIGIDKTKALSLLRALTDFKRAFDLNLRVKNMLPSLYREDPEFYENMRIQELAQNIHKLIVHHNLPDLMYRAFEVLPTMVMTPYAAFQKELHGMTEEVYLDEMVGRINANMILPYPPGVPLVMPGEMITEESRPVLEFLQMLCEIGAHYPGFETDIHGAYRQADGRYTVKVLKEESKK
In the case of B5, the binding result in the data set “negative stain EM [5]” was “binds”.

B6: mGeosM-LdcI (N-terminal fluorescent protein fusion of LdcI) (other)
chain: MSAIKPDMKIKLRMEGNVNGHHFVIDGDGTGKPFEGKQSMDLEVKEGGPLPFAFDILTTAFMYGNRVFAKYPDNIQDYFKQSFPKGYSWERSLTFEDGGICIARNDITMEGDTFYNKVRFYGTNFPANGPVMQKKTLKWEPSTEKMYVRDGVLTGDIHMALLLEGNAHYRCDSRTTYKAKEKGVKLPGYHFVDHCIEILSHDKDYNKVKLYEHAVAHSGLPDNARRMNVIAILNHMGVYFKEEPIRELHRALERLNFQIVYPNDRDDLLKLIENNARLCGVIFDWDKYNLELCEEISKMNENLPLYAFANTYSTLDVSLNDLRLQISFFEYALGAAEDIANKIKQTTDEYINTILPPLTKALFKYVREGKYTFCTPGHMGGTAFQKSPVGSLFYDFFGPNTMKSDISISVSELGSLLDHSGPHKEAEQYIARVFNADRSYMVTNGTSTANKIVGMYSAPAGSTILIDRNCHKSLTHLMMMSDVTPIYFRPTRNAYGILGGIPQSEFQHATIAKRVKETPNATWPVHAVITNSTYDGLLYNTDFIKKTLDVKSIHFDSAWVPYTNFSPIYEGKCGMSGGRVEGKVIYETQSTHKLLAAFSQASMIHVKGDVNEETFNEAYMMHTTTSPHYGIVASTETAAAMMKGNAGKRLINGSIERAIKFRKEIKRLRTESDGWFFDVWQPDHIDTTECWPLRSDSTWHGFKNIDNEHMYLDPIKVTLLTPGMEKDGTMSDFGIPASIVAKYLDEHGIVVEKTGPYNLLFLFSIGIDKTKALSLLRALTDFKRAFDLNLRVKNMLPSLYREDPEFYENMRIQELAQNIHKLIVHHNLPDLMYRAFEVLPTMVMTPYAAFQKELHGMTEEVYLDEMVGRINANMILPYPPGVPLVMPGEMITEESRPVLEFLQMLCEIGAHYPGFETDIHGAYRQADGRYTVKVLKEESKK
As to B6, the “stoichiometry N” value in the data set “negative stain EM [6]” was 12.
